Bridges are numbered along the chain shown (N, C = ends). Where no end group is shown, it is not given here. [ ]: non-standard residue; d: D form. S5 = C=CCCC[C@](C)(N)C(=O)O
Legend:
[1] = molecular target: T1, interaction between p110α E545K and IRS1 (Homo sapiens, UniProt P35568); assay: Peptide competition assay in cell lysates (anti-FLAG immunoprecipitation, anti-IRS1 blot); assay type: binding; settings: peptide added into cell lysates of p110α E545K 3×FLAG KI cells
T1 construct: In KI DLD1 cells, IRS1 was co-immunoprecipitated with p110α E545K but not the WT p110α; endogenous in cells; host or cells: DLD1 p110α E545K 3×FLAG knock-in cells (rAAV gene targeting of the endogenous allele)
T1 sequence (P35568 1-1242): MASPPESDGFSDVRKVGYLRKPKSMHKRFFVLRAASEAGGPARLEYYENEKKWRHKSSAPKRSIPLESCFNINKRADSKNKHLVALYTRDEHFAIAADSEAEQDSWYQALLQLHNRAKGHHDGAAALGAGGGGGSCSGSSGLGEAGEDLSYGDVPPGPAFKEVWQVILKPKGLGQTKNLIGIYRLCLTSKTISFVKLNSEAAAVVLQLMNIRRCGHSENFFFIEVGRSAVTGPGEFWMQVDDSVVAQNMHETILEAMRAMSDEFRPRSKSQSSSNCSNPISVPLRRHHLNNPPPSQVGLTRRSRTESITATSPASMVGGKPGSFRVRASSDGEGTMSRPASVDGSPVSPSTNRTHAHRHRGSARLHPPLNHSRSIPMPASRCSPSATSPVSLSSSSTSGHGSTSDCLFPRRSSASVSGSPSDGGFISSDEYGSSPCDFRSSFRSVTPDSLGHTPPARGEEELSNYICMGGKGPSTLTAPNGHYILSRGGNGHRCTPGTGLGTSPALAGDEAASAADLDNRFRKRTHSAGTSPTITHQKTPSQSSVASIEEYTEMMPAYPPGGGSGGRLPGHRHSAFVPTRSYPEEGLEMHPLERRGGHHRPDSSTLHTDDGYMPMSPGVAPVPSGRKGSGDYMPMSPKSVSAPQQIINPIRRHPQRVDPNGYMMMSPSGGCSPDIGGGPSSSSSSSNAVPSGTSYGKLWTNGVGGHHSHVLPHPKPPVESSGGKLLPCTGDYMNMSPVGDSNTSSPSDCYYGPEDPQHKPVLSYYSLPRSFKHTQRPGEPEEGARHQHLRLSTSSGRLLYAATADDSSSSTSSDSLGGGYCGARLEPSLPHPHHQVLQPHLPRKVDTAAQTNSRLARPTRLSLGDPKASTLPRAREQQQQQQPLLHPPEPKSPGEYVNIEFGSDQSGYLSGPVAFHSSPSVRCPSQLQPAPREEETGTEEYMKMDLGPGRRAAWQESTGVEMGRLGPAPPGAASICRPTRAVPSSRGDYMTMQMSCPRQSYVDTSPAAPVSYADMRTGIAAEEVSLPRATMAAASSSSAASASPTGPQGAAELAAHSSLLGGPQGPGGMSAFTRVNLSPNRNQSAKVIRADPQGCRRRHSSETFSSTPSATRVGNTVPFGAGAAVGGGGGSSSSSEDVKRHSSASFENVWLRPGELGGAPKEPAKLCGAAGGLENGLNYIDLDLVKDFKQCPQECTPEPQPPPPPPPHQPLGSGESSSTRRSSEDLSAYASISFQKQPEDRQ
Protocol: FIGS. 3(A-M) illustrate: (A, B) Mapping peptides (P3, SEQ ID NO: 1; P4 SEQ ID NO: 2; P5, SEQ ID NO: 3; P6, SEQ ID NO: 4) derived from mutant p110α that inhibit interaction between IRS1 and p110α E545K. The indicated peptides were added into cell lysates made from the p110α E545K 3×FLAG KI cells. Cell lysates were immunoprecipitated with beads conjugated with anti-FLAG antibodies and then blotted with anti-IRS1 antibodies. (C) Immunoblots of cell lysates made from the p110α E545K 3×FLAG KI cells. Cell lysates were immunoprecipitated with beads conjugated with anti-FLAG antibodies and then blotted with the indicated antibodies. (D) Immunoblots of cell lysate of Myc-tagged IRS1 plasmid, which co-transfected an ABD domain deletion construct of the FLAG-tagged p110α E545K mutant (ΔABD), incubated with the indicated amount of stapled p110α mutant peptides, and then immunoprecipitated with anti-FLAG antibodies and blotted with the indicated antibodies. (J, K) Immunoblot and graph of purified recombinant p110α E545K mutant proteins mixed with the indicated components and quantified using an in vitro lipid kinase assay. (L, M) Immunoblots of the indicated cell lines serum-starved, stimulated with 1 μg/ml insulin for 30 min, and then treated with or without the indicated peptides. Cell lysates were blotted with the indicated antibodies. All error bars show mean±SEM. *p<0.05, **p<0.001, t test.
(§1) For Co-immunoprecipitation (Co-IP), cells were harvested, washed with PBS, and then lysed in IP buffer (50 mMTris [pH 7.4], 150 mMNaCl, 5 mMEDTA [pH 8.0], 0.5% NP40, 1 mM PMSF, complete Protease Inhibitor Cocktail tablet [Roche]; supplemented with phosphatase inhibitors [1 mM Na3VO4, 20 mM NaF, 0.1 mM b-glycerophosphate, 20 mM sodium pyrophosphate] when necessary). For immunoblotting (IB) of phospho-specific proteins, unless stated otherwise, cells were lysed in urea buffer (100 mM NaH2PO4, 10 mM Tris-HCl, 8 M Urea, 1 mM Na3VO4, 20 mM NaF, 0.1 mM β-glycerophosphate, 20 mM sodium pyrophosphate, supplemented with complete Protease Inhibitor Cocktail tablet [Roche], pH 8.0). Lysates were then cleared by centrifugation (14,000 rpm, 10 min) and protein concentration in supernatants was determined with a BCA protein assay kit (Pierce, Rockford, Ill.). Equal amounts of total protein were used for IP or IB.
For in vitro peptide competition assay, the p110α mutant-FLAG-tagged cells were grown to 90% confluency, serum-starved overnight, and lysed as described previously. Peptides were then added to the cell lysates, incubated for 30 min at 4° C. and followed by immunoprecipitation assay.

[2] = molecular target: T2, IRS1-p110α E545K interaction in DLD1 cells (Homo sapiens, UniProt P35568); assay: Co-IP after peptide added to culture medium of p110α E545K 3×FLAG KI DLD1 cells; assay type: cell-based; design: dose or concentration left out as unconfirmed; settings: peptide added to cell culture medium for 16 hr
T2 construct: endogenous in cells; host or cells: DLD1 p110α E545K 3×FLAG knock-in cells (rAAV gene targeting of the endogenous allele)
T2 sequence (P35568 1-1242): T1 sequence (P35568 1-1242)
Protocol: FIG. 4(A-F) illustrate: (A) Schematic diagram of linear and stapled WT and mutant peptides derived from p110α (SEQ ID NOs: 5, 6, 7 and 8). (B) Immunoblots of cell lysates immunoprecipitated with beads conjugated with anti-FLAG antibodies and then blotted with the indicated antibodies. Linear or stapled WT and mutant peptide were added into culture medium of the p110α E545K 3×FLAG KI cells for 16 hr. (C) Immunoblots of cell lysates immunoprecipitated with anti-p110α antibodies and then blotted with the indicated antibodies. Vaco481 CRC cells were treated with the stapled mutant peptides at the indicated concentration. (D) Immunoblots of cell lysates blotted with the indicated antibodies. The indicated cell lines were treated with the stapled mutant peptide. (E) Immunoblots of cell lysates blotted with the indicated antibodies. The indicated cancer cell lines were treated or untreated with stapled WT or mutant peptide at […] for 2 hr. (F) Immunoblots of cell lysates were blotted with the indicated antibodies. The indicated cancer cell lines were treated with or without […] of stapled mutant peptide for 2 hr.
as §1

In the case of “H2N-SEITEQEKD^549-FLW-S^553-HRHYC-COOH (SEITEQEK[S5]FLW[S5]HRHYC; staple 9-13; not fully specified (N-terminus, C-terminus); printed as H2N-SEITEQEKD549-FLW-S553-HRHYC-COOH; listed as Homo sapiens) [stapled WT peptide, stapled wild-type p110α counterpart of the stapled mutant peptide, used as control, reference compound]”, the “inhibition of the interaction between p110α E545K and IRS1” value (“inhibition” for short) [1] is reported as “did not inhibit” and the “disruption of IRS1-p110α E545K interaction in DLD1 cells” value [2] is reported as “neither the linear mutant peptide nor the stapled WT peptide affected the interaction”.

With “H2N-SEITKQEK-D^549-FLW-S^553-HRHYC-COOH [stapled mutant peptide]” the “inhibition” value [1] was “almost completely disrupted”, the “inhibition” value ([1]; listed as stapled polypeptide substantially homologous to the C-terminal α-helical motif o) was “disrupted” and the “disruption of IRS1-p110α E545K interaction in DLD1 cells” value [2] was “effectively disrupted”.

Source: US20140005119A1, “COMPOSITIONS AND METHODS FOR INHIBITING THE ACTIVITY OF P110a MUTANT PROTEINS” (Case Western Reserve University, priority 2012, published 2014)
